Results reported in IntAct's records for PubMed 19109891.

B1: Dystrophin (Homo sapiens), P11532-5 (parent)
chain: MREQLKGHETQTTCWDHPKMTELYQSLADLNNVRFSAYRTAMKLRRLQKALCLDLLSLSAACDALDQHNLKQNDQPMDILQIINCLTTIYDRLEQEHNNLVNVPLCVDMCLNWLLNVYDTGRTGRIRVLSFKTGIISLCKAHLEDKYRYLFKQVASSTGFCDQRRLGLLLHDSIQIPRQLGEVASFGGSNIEPSVRSCFQFANNKPEIEAALFLDWMRLEPQSMVWLPVLHRVAAAETAKHQAKCNICKECPIIGFRYRSLKHFNYDICQSCFFSGRVAKGHKMHYPMVEYCTPTTSGEDVRDFAKVLKNKFRTKRYFAKHPRMGYLPVQTVLEGDNMETPASSPQLSHDDTHSRIEHYASRLAEMENSNGSYLNDSISPNESIDDEHLLIQHYCQSLNQDSPLSQPRSPAQILISLESEERGELERILADLEEENRNLQAEYDRLKQQHEHKGLSPLPSPPEMMPTSPQSPRDAELIAEAKLLRQHKGRLEARMQILEDHNKQLESQLHRLRQLLEQPQAEAKVNGTTVSSPSTSLQRSDSSQPMLLRVVGSQTSDSMGEEDLLSPPQDTSTGLEEVMEQLNNSFPSSRGHNVGSLFHMADDLGRAMESLVSVMTDEEGAE

Variants of: B1
Conditions: with ank2_human ANK2, Q01484
Chain of ank2_human ANK2, Q01484 (Q01484 whole entry): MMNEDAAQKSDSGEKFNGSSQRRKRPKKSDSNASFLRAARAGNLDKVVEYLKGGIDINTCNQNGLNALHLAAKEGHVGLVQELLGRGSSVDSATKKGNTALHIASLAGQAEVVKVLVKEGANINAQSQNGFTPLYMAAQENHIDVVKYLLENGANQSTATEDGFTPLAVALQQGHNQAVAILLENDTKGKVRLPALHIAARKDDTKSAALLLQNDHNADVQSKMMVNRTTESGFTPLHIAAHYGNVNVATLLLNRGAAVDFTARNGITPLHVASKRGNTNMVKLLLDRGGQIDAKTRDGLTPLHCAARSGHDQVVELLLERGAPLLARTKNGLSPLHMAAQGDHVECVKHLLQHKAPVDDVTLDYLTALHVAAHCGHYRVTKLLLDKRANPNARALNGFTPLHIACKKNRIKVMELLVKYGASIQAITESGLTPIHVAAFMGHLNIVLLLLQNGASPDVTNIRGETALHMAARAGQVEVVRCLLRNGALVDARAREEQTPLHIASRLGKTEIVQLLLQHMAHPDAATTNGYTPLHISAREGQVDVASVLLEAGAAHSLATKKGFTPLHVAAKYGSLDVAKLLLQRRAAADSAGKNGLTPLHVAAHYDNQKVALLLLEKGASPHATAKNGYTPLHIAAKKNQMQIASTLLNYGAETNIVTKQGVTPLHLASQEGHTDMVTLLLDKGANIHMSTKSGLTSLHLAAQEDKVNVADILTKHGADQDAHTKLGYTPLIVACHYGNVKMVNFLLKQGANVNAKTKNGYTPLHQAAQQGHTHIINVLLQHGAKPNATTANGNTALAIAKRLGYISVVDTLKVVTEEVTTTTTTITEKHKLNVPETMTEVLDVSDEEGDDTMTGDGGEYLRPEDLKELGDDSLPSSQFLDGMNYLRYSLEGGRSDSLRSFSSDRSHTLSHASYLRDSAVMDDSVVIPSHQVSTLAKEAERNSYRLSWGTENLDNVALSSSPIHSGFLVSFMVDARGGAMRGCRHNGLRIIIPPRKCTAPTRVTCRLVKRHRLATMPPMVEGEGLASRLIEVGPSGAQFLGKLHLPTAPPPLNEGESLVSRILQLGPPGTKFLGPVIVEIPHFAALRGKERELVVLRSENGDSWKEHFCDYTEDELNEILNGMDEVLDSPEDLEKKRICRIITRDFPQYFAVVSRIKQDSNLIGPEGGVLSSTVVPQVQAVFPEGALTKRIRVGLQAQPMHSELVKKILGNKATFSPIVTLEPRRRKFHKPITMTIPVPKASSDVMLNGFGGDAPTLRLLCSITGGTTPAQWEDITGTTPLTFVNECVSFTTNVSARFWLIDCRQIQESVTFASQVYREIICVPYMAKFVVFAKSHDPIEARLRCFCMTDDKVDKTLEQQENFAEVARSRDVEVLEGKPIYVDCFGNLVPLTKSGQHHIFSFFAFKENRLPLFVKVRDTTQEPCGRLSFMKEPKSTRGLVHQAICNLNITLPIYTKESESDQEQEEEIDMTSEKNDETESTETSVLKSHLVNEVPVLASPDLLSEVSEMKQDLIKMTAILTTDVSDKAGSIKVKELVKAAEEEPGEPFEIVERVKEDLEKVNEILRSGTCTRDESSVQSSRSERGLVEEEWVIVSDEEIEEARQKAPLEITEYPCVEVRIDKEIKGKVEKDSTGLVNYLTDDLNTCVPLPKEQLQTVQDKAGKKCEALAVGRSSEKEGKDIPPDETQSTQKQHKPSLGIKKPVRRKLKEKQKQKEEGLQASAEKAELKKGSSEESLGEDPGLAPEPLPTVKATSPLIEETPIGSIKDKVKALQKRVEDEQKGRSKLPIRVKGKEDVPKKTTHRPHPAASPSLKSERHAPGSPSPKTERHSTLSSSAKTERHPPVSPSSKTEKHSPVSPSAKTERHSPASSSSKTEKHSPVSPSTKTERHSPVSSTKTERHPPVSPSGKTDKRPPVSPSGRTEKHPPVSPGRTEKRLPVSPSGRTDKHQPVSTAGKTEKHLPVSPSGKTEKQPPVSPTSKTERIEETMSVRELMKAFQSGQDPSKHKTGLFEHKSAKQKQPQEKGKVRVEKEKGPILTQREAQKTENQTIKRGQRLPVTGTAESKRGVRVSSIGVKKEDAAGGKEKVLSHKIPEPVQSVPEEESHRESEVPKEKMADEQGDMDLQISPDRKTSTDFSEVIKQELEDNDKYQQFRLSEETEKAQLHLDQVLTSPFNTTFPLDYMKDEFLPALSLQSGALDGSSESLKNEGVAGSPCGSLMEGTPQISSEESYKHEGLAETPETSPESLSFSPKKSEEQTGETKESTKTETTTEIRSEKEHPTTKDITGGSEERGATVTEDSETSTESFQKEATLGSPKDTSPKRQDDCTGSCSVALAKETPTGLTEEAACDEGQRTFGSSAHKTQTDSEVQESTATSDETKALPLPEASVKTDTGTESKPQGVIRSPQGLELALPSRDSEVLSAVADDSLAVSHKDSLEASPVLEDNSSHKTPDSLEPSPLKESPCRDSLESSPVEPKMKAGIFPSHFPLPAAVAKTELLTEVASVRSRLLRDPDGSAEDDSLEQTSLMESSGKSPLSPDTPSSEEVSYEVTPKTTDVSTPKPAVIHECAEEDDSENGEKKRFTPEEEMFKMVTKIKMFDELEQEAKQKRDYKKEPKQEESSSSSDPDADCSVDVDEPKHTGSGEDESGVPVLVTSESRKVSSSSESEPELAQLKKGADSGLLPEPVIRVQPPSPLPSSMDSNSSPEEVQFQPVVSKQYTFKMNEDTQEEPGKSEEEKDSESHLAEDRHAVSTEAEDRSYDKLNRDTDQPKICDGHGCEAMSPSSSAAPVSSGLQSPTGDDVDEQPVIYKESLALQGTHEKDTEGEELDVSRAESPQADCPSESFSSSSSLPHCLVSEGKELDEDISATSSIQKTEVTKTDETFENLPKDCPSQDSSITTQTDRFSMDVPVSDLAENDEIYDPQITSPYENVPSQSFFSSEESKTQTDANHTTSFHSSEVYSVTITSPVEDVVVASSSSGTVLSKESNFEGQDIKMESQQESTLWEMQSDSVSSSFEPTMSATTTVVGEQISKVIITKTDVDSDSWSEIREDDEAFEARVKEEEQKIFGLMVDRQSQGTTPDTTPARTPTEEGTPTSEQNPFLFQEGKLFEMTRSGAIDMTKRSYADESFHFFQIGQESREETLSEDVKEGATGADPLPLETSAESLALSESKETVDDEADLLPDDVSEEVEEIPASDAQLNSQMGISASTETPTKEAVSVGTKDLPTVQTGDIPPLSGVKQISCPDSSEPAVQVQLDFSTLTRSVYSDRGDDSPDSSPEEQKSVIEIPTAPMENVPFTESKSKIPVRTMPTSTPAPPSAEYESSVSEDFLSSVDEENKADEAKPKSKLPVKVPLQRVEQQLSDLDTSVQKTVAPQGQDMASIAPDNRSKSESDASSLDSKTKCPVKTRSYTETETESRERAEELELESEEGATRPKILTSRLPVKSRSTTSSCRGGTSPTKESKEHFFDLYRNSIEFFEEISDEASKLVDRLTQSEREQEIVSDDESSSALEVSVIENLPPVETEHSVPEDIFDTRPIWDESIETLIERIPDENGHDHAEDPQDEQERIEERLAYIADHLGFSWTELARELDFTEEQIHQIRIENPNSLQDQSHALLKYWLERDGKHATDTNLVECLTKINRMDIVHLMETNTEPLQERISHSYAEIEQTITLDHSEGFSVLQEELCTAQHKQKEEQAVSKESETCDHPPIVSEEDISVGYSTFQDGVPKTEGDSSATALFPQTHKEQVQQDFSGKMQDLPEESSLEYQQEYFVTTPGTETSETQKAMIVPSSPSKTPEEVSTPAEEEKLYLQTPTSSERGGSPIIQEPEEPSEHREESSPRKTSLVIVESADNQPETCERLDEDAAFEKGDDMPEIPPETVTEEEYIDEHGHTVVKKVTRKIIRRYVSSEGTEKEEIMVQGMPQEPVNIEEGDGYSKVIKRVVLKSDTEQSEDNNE

Row | Variant | effect of a mutation on the interaction
1 | D267N | decreasing interaction
